Common to all, as to experiment: EMSA
For orientation: Mobility shift assays separate free from complexed probe on a gel.

One data set concerns the target T1, FLAG-TEN N338Y (Cucumis sativus (cucumber), UniProt A0A0A0KSL1 1-395, N338Y).
T1 sequence: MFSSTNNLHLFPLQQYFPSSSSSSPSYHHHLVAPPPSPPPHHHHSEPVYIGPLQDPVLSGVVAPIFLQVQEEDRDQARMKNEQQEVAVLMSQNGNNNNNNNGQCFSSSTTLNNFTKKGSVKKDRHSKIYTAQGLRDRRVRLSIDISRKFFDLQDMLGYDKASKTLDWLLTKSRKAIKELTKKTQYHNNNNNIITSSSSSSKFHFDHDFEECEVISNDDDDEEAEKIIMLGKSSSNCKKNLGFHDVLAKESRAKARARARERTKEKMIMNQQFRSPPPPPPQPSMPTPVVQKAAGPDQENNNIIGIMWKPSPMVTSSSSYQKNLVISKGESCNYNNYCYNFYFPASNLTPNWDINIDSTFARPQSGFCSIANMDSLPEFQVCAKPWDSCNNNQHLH

A further data set deals with T2, FLAG-ΔN121 (TCP+R+C130) (Cucumis sativus (cucumber), UniProt A0A0A0KSL1 122-395, del1-121).
T2 sequence: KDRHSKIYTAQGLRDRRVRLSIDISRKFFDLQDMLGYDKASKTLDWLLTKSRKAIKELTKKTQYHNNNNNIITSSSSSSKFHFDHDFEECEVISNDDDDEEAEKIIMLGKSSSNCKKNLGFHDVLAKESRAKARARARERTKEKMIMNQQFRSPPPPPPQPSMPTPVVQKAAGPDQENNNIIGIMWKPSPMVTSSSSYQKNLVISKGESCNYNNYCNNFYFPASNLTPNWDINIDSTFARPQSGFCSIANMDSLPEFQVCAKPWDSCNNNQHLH

A further data set addresses T3, MBP-C (Cucumis sativus (cucumber), UniProt A0A0A0KSL1 265-395).
T3 sequence: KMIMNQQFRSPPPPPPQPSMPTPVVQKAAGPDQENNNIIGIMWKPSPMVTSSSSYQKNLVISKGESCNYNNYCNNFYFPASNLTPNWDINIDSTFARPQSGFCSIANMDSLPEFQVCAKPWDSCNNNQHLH

A further data set addresses T4, FLAG-TEN (Cucumis sativus (cucumber), UniProt A0A0A0KSL1 1-395).
T4 sequence: T1 sequence with Y338N

Where a chain is given by its changes, count along the chain named.

B1: GGTCCC probe (GTGGTCCCAC) (dsDNA)
DNA 1: AAATTAAGAATATTGTGGTCCCACTCAAATATAAAGTATTAATT
DNA 2: AATTAATACTTTATATTTGAGTGGGACCACAATATTCTTAATTT
As to B1, the binding result with FLAG-TEN N338Y is reported as “binds”.

B2: CTCCGCC probe (dsDNA)
DNA 1: AAATTAAGAATATTTAACTCCGCCAATTCAAATATAAAGTATTAATT
DNA 2: AATTAATACTTTATATTTGAATTGGCGGAGTTAAATATTCTTAATTT
With B2, the binding result with FLAG-TEN N338Y is recorded as “no binding”; in the data set with FLAG-ΔN121 (TCP+R+C130) it was “binds”; in the data set with MBP-C, “no binding”; in the data set with FLAG-TEN it was “binds”.

The values are drawn from article doi:10.1101/2020.02.25.965475.
